From patent publication US20220064276A1 (SCHOLAR ROCK, published 2022) come the findings set out here.

Broadly, the Kd is the free concentration of one partner at which half of the binding sites on the other are occupied at equilibrium, for simple one-to-one binding. A high value points to weaker binding. By koff is commonly meant a measure of how fast the partners let go of each other. Higher therefore signals fast dissociation. As a reminder, the kon is the rate constant with which the complex forms. A low value points to slow association.

Substitutions are numbered along the chain they refer to. Like-named read-outs stand apart in the source and are kept apart here.

For experiment [1], the target named is T1, LTBP-proTGFβ1: transfected human proTGFβ1 presented by endogenous LTBP1/3 of LN229 cells (human). The experiment in a line: cell-based or functional assay.
T1 sequence (P01137 30-390): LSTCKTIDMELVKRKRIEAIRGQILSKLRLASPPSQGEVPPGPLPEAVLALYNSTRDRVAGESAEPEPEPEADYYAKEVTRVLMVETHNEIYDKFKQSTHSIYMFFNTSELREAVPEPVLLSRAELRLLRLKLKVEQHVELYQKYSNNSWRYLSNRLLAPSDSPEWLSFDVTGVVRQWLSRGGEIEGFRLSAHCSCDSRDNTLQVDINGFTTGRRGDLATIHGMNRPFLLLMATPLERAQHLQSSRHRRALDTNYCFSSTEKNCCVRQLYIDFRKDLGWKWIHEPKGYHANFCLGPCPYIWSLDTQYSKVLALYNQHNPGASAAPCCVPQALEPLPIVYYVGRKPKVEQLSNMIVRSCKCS
The target of experiment [2] is T2, mouse LTBP1-proTGFβ1 complex (mouse, UniProt Q8CG19 339-1712; P04202 30-390). As to the kind of experiment: cell-based or functional assay.
T2 sequence (Q8CG19 339-1712 limits assumed, chain 1 of 2): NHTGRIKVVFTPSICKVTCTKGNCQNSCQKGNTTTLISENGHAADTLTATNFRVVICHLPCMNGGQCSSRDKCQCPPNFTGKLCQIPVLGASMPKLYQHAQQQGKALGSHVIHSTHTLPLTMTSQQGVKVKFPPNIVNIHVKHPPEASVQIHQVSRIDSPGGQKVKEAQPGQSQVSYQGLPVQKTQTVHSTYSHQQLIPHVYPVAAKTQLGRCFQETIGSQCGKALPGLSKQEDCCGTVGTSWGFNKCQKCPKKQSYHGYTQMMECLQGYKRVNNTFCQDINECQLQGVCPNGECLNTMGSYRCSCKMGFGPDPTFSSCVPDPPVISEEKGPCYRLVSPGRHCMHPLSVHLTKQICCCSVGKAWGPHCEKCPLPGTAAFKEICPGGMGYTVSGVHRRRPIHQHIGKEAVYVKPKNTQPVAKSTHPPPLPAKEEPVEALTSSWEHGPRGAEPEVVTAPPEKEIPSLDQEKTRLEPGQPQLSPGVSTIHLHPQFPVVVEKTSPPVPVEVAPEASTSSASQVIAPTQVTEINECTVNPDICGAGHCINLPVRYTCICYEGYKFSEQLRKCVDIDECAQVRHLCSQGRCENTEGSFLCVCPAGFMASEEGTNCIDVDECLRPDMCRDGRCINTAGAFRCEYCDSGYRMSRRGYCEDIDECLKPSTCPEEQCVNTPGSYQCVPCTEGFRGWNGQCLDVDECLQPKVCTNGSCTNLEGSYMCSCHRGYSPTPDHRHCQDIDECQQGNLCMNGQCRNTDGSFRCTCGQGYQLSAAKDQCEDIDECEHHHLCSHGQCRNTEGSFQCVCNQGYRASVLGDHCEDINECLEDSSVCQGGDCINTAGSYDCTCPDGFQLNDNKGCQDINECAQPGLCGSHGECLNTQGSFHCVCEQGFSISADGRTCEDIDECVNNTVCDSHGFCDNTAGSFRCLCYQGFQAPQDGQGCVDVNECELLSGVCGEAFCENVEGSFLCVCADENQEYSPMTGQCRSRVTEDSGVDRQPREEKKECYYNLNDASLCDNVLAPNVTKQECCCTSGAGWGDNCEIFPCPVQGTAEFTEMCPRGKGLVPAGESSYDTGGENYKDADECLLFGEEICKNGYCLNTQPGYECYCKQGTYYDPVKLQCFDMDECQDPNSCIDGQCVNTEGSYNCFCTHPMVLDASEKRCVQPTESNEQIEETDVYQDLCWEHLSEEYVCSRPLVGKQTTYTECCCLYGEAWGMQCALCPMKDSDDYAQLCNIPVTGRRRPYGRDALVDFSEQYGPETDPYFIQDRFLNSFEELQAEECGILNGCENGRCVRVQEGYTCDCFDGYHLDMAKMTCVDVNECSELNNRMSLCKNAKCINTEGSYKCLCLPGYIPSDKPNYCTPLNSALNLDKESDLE
T2 sequence (P04202 30-390 limits assumed, chain 2 of 2): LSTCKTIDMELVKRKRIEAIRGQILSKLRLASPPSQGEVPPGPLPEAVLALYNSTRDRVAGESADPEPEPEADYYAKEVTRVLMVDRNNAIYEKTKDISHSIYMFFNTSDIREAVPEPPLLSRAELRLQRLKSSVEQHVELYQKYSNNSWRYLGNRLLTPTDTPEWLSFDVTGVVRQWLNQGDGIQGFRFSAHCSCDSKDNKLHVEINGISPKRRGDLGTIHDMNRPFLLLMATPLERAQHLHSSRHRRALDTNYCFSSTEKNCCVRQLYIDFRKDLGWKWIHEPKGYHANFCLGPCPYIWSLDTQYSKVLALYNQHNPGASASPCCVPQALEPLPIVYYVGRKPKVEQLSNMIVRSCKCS
In experiment [3] the target is T1, LTBP-proTGFβ1: transfected human …. The experiment in a line: cell-based or functional assay. The source holds these as a separate data set.
Experiment [4] deals with T2, mouse LTBP1-proTGFβ1 complex. As to the kind of experiment: cell-based or functional assay. This is another data set of the same source.
Experiment [5] has as its target T3, human LTBP1-proTGFβ1 complex (human, UniProt Q14766 347-1721; P01137 30-390).
T3 construct: Large latent complex: one presenting molecule disulfide-linked to a proTGFβ1 dimer; also called Hu LTBP1-proTGFβ1; huLTBP1 proTGFβ1
The experiment in a line: Octet BLI, IgG captured. How it is done:
(§1) LTBP complex-specific antibodies from the first round of affinity maturation/optimization (SR-AB14, SR-AB16, SR-AB17, SR-AB18, SR-AB19) were selected for a second round of affinity maturation/optimization (i.e., CDR-H3 mutagenesis as described herein) and particular progeny antibodies (SR-AB20, SR-AB21, SR-AB22, SR-AB23, SR-AB24, SR-AB25, SR-AB26, SR-AB27, SR-AB28, and SR-AB29) were assessed for their ability to bind various proTGFβ1 constructs. Binding affinities of the optimized antibodies were measured by Octet against human LTBP1-proTGFβ1, human LTBP3-proTGFbl, mouse LTBP1-proTGFβ1, mouse LTBP3-proTGFbl, and GARP-proTGFβ1 complexes, essentially as described in Example 6. […] The antigens were allowed to associate for 3 minutes followed by a 5-minute dissociation. Kinetics buffer (ForteBio®) was used throughout the experiment, and KD was determined using a 1:1 fitting model for each antibody antigen pair.
On the technique in general: Biolayer interferometry detects binding as a change in optical thickness at a sensor tip.

In experiment [6] the target is T4, human LTBP3-proTGFβ1 complex (human, UniProt Q9NS15 44-1303; P01137 30-390, limits assumed).
T4 construct: Exemplary entries; also called Hu LTBP3-proTGFβ1; huLTBP3 proTGFb1
As to the kind of experiment: Octet BLI, IgG captured. How it is done: as §1

The target in experiment [7] is T2, mouse LTBP1-proTGFβ1 complex. The experiment in a line: Octet BLI, IgG captured. The procedure: as §1
Experiment [8] concerns the target T3, human LTBP1-proTGFβ1 complex. As to the kind of experiment: Octet binning; competitor (immobilized second antibody) SR-AB1. How it is done: (§2) 500 nM of human LTBP1-proTGFb1 complex was pre-incubated with 1 μM of each test antibody. After an overnight incubation, the LTBP1-proTGFβ1+first antibody was tested for binding to a second antibody which was immobilized to an Anti-Human IgG Fc Capture (AHC) sensor tip at 67 nM. The sensor tip was blocked with a negative control antibody (HuNeg) before seeing the LTBP1-proTGFβ1+first antibody.
(§3) Normalized responses less than 70% or less than 0.7 of the uninhibited interaction were considered antibodies that cross block.

Experiment [9] shares this target. The experiment in a line: Octet binning; competitor (immobilized second antibody) SR-AB2. The procedure:
as §2, §3

Experiment [10] has the same target. The experiment in a line: Octet binning; competitor (immobilized second antibody) SR-AB10. How it is done:
as §2, §3

For experiment [11] the target is unchanged. As to the kind of experiment: Octet binning; competitor (immobilized second antibody) SR-AB13. The procedure: as §2, §3
Experiment [12] deals with T5, mouse LTBP3-proTGFβ1 complex (mouse, UniProt Q61810 41-1245; P04202 30-390, limits assumed).
T5 construct: Exemplary entries; also called Mo LTBP3-proTGFβ1; Murine LTBP3 proTGFb1
T5 sequence (Q61810 other isoform, or with tags, fused parts or gaps limits assumed, chain 1 of 2): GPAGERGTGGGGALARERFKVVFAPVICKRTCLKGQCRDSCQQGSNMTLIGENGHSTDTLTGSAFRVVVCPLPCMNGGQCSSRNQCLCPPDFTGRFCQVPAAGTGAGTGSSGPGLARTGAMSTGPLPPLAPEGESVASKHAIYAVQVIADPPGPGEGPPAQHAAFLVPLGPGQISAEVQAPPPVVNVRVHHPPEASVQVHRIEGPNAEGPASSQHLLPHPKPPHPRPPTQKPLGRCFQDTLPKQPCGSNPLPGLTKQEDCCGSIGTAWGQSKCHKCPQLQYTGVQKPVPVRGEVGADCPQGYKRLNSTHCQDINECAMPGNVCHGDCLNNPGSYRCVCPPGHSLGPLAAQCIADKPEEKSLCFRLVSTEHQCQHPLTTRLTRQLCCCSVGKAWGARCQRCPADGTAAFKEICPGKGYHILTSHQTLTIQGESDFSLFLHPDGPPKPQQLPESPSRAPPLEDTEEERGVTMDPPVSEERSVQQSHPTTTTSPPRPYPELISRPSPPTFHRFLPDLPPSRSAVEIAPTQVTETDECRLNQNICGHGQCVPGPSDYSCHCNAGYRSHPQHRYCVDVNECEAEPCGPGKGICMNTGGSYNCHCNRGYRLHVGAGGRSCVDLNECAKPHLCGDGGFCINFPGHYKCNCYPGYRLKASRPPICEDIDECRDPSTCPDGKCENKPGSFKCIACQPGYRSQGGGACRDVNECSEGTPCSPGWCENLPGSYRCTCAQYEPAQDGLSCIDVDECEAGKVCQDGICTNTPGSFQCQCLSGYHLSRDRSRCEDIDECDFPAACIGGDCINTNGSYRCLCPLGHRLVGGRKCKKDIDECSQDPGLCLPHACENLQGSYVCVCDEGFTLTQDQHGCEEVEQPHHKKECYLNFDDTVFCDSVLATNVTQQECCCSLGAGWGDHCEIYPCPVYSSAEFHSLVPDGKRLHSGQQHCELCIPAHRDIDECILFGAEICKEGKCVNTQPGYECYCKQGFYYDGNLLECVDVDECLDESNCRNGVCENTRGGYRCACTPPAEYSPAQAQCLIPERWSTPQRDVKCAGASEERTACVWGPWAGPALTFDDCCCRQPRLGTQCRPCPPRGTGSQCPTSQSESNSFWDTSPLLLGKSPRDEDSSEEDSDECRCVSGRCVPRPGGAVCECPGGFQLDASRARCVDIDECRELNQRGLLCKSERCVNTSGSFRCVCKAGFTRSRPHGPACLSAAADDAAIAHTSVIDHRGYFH
T5 sequence (P04202 30-390 limits assumed, chain 2 of 2): as the sequence (P04202 30-390 limits assumed, chain 2 of 2) above
The experiment in a line: Octet (bio-layer interferometry), yeast expressed IgG1Agly antibody, antigen at a single 100 nM per Example 6.

The target in experiment [13] is T6, human GARP-proTGFβ1 complex (human, UniProt Q14392 18-627; P01137 30-390, limits assumed).
T6 construct: Exemplary entries; also called Hu GARP-proTGFβ1; huGARP proTGFb1
The description is as above.

The target of experiment [14] is T3, human LTBP1-proTGFβ1 complex. The experiment in a line: Octet (bio-layer interferometry), yeast expressed IgG1Agly antibody, antigen at a single 100 nM per Example 6, 1:1 fit; value printed under the panel.
Experiment [15] addresses T4, human LTBP3-proTGFβ1 complex. The experiment is described as above.
The target of experiment [16] is T2, mouse LTBP1-proTGFβ1 complex. Described as above.
For experiment [17], the target named is T4, human LTBP3-proTGFβ1 complex. The experiment in a line: SPR Biacore 8K, Fab over captured antigen. The procedure:
(§4) A Biacore 8K system was employed to determine the monovalent binding affinity and the kinetic parameters for antigen binding of test antibodies. Association and dissociation kinetics of Fab fragments SR-AB42-HuFab, SR-AB63-HuFab and SR-AB43-HuFab to antigen complexes were measured, and resulting ka, kd and KD are provided below. Briefly, the binding kinetics were evaluated by surface plasmon resonance using Biacore 8K (GE Healthcare). Biotinylated capture antigens were immobilized to the chip (10 nM, ˜200 RU loading). A Biotin CAPture sensor chip was used to capture the biotinylated antigens. […] 0 nM was used as a reference. […] 0 nM was used as a reference. Multi-cycle kinetics was employed where each analyte concentration was injected in a separate cycle and the sensor chip surface was regenerated after each cycle. A11 the assays were carried out in freshly prepared 1× HBS-EP+ buffer (10 mM HEPES, 150 mM NaCl, 3 mM EDTA, 0.05% Tween20, pH 7.4). Data were fit globally to a 1:1 binding model to obtain the kinetic parameters. The sensorgram for 0 nM analyte concentration was used as reference.
For orientation: In SPR one partner is held on a chip, and binding of the other changes the refractive index at the surface.

In experiment [18] the target is T3, human LTBP1-proTGFβ1 complex. The experiment in a line: SPR Biacore 8K, Fab over captured antigen; mean of 4. The procedure:
as §4

Experiment [19] deals with T6, human GARP-proTGFβ1 complex. The experiment in a line: SPR Biacore 8K, Fab up to 100 nM over captured antigen. The procedure: as §4
The target of experiment [20] is T7, human LRRC33-proTGFβ1 complex (human, UniProt Q86YC3 19-650; P01137 30-390, limits assumed).
T7 construct: Exemplary entries; also called huLRRC33 proTGFb1; HuLRRC33-ProTGFb1
The experiment is described as above. The procedure: as §4

In experiment [21] the target is T3, human LTBP1-proTGFβ1 complex. As to the kind of experiment: SPR (Biacore 8K), biotinylated antigen captured, Fab as analyte, 1:1 fit (Example 9); table beside the sensorgrams. The procedure: as §4
Experiment [22] addresses T4, human LTBP3-proTGFβ1 complex. Described as above. How it is done: as §4
Experiment [23] has as its target T1, LTBP-proTGFβ1: transfected human …. As to the kind of experiment: cell-based or functional assay. This is another data set of the same source.
Experiment [24] deals with T2, mouse LTBP1-proTGFβ1 complex. The experiment in a line: cell-based or functional assay. This is another data set of the same source.
Experiment [25] addresses T1, LTBP-proTGFβ1: transfected human …. The experiment in a line: cell-based or functional assay. The source holds these as a separate data set.
Experiment [26] has as its target T2, mouse LTBP1-proTGFβ1 complex. The experiment in a line: cell-based or functional assay. This is another data set of the same source.
For experiment [27], the target named is T5, mouse LTBP3-proTGFβ1 complex. As to the kind of experiment: Octet BLI, IgG captured. The procedure:
as §1

The target is the same in experiment [28]. The experiment in a line: Octet (bio-layer interferometry), yeast expressed IgG1Agly antibody, antigen at a single 100 nM per Example 6, 1:1 fit; value printed under the panel.

T3 sequence (Q14766 347-1721 limits assumed, chain 1 of 2): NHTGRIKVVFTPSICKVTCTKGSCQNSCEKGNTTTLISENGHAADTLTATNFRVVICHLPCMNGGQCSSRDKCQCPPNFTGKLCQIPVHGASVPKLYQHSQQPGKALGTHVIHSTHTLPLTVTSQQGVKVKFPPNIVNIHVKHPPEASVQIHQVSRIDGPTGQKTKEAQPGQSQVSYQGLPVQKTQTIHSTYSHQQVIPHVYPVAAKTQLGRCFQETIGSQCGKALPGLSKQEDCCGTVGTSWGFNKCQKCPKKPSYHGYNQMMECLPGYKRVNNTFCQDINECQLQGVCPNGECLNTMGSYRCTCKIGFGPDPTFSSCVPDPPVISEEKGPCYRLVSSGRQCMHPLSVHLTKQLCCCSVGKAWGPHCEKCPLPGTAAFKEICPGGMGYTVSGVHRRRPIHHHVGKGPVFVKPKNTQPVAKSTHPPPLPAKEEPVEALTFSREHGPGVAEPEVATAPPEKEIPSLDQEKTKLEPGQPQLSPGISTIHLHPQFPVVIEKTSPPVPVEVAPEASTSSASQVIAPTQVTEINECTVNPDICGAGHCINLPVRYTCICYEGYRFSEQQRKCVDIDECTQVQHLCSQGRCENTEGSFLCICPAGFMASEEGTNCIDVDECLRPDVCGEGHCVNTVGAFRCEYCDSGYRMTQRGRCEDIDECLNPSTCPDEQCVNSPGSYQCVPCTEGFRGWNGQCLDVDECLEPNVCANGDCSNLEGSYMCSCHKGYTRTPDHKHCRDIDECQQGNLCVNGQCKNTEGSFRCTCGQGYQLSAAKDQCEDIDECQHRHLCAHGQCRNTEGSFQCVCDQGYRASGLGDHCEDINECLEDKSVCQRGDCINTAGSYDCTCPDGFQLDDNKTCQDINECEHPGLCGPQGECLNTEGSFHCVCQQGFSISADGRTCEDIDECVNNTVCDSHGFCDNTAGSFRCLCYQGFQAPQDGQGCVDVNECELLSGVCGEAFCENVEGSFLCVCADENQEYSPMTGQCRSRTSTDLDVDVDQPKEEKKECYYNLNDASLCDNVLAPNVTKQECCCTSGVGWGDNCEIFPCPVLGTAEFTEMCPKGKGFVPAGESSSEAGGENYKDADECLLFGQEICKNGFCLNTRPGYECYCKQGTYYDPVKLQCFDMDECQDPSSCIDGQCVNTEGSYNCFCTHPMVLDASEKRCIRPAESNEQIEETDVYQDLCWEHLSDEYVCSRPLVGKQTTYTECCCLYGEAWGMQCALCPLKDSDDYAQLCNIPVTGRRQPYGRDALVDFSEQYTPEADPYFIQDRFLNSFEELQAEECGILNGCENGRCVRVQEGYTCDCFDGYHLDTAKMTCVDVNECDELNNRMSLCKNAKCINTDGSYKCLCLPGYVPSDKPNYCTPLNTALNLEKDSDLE
T3 sequence (P01137 30-390 limits assumed, chain 2 of 2): as the sequence (P01137 30-390) above

B1: SR-AB13 (antibody, IgG1, V domains shown)
VH: QLQLQESGPGLVKPSETLSLTCTVSGGSISSSSYYWGWIRQPPGKGLEWIGSISYSGSTYYNPSLKSRVTISVDTSKNQFSLKLSSVTAADTAVYYCARDPSYDSIAGMDVWGQGTTVTVSS
VL: DIQLTQSPSSLSASVGDRVTITCRASQSISSYLNWYQQKPGKAPKLLIYAASNLQSGVPSRFSGSGSGTDFTLTISSLQPEDFATYYCQQSFDFPFTFGGGTKVEIK
notes: Parent antibody; also called SR-13
B1: the “IC50, endogenous hLTBP assay (CAGA12 luciferase)” value in experiment [1] and in experiment [3] was 4.83 nM each time. The “IC50, mLTBP1 assay (CAGA12 luciferase)” value in [2] and in experiment [4] was 25.4 nM in each case. For the same molecule, the Kd in experiment [5] turned out to be 39.2 nM; in experiment [6], 35.9 nM; in [7], 59.5 nM; in [14] it was 148 nM; in experiment [15], 71 nM; in experiment [16] it was 102 nM. Further, the normalized response in [8] was 1.08 fraction of uninhibited binding; in [9], 1.29 fraction of uninhibited binding; in experiment [10] it was 1.38 fraction of uninhibited binding; in experiment [11] it was 0.47 fraction of uninhibited binding. In addition, the binding result in experiment [12] and in [13] was “no binding (tested: 100 nM)” each time.

B2: SR-AB63-HuFab (Fab, V domains shown)
VH: B1 VH with S30R, G57A, S58T, R99G, D110Q
VL: B1 VL with F94W, F96L
notes: Human Fab
Turning to B2, the dissociation constant (Kd) in experiment [17] was determined as 0.127 nM; in [18], 0.000103 nM; in experiment [19] it was 349 nM; in experiment [20], 216 nM; in experiment [21] it was 0.03 nM; in experiment [22], 0.1 nM. The off-rate (koff) in experiment [17] was found to be 4.99e-05 s⁻¹; in experiment [18] it was 3.82e-08 s⁻¹; in experiment [19], 0.00093 s⁻¹; in experiment [20] it was 0.00108 s⁻¹. For the same molecule, the on-rate constant (kon) in experiment [17] is 394000 M⁻¹ s⁻¹; in [18], 371000 M⁻¹ s⁻¹; in experiment [19], 2660 M⁻¹ s⁻¹; in [20] it was 5000 M⁻¹ s⁻¹.

B3: SR-AB10 (antibody, IgG1, V domains shown)
VH: QLQLQESGGGVVQPGRSLRLSCAASGFTFNNYPIHWVRQAPGKGLEWVAVMSYDGINKYYADSVKGRFTISRDNSKNTLYLQMNSLRAEDTAVYYCARPRIAARRGGFDYWGQGTLVTVSS
VL: NFMLTQPHSVSESPGKTVTISCTRSSGNIDNNYVQWYQQRPGSSPTTVIYEDNQRPSGVPDRFSGSIDSSSNSASLTISGLKTEDEADYYCQSYDSDNQGVVFGGGTKLTVL
notes: Parent antibody
Take B3: the “IC50, endogenous hLTBP assay (CAGA12 luciferase)” value in [23] and in experiment [25] was 3.64 nM in each case. The “IC50, mLTBP1 assay (CAGA12 luciferase)” value in [24] and in experiment [26] was 119 nM throughout. For the same molecule, the Kd in [7] was 14.2 nM; in experiment [27] it was 23 nM; in experiment [14], 308 nM; in experiment [16], 79 nM; in experiment [28], 86 nM. Further, the normalized response in [8] is 0.82 fraction of uninhibited binding; in experiment [9], 1.53 fraction of uninhibited binding; in experiment [10] it was 0.51 fraction of uninhibited binding; in [11], 1.27 fraction of uninhibited binding. Further, the binding result in experiment [13] is listed as “no binding (tested: 100 nM)”.
